How the values were obtained:
SP cells = assay: FACS of Hoechst 33342 treated quail SP cells; type: cell-based; settings: negative control in FACS sorting
Protocol: SP cells were isolated from quail by FACS isolation relying on Hoechst 33342 and propidium iodide to distinguish different cell populations. Cells were incubated in Hoechst 33342 at 37° C. for 60-90 minutes. Cells were then collected by centrifugation, washed in PBS and resuspended in a propidium iodide solution. As a negative control, a fraction of the primary cells were incubated in parallel with verapamil, which blocks Hoechst 33342 efflux. Sorting was performed on a FACS Advantage Plus flow cytometer and fluorescence of Hoechst 33342 and propidium iodide was measured on a linear scale (Goodell et al. (1996) J. Exp. Med. 183:1797; Goodell et al. (1997) Nat. Med. 3:1337 and Gussoni et al. (1999) Nature 401:390). The cells were then pelleted by centrifugation.

[1] = system: presumptive heart field of chick embryos; assay: Implantation of Wnt-expressing cell pellets into the precardiac region of embryos in New culture; type: in vivo; settings: cell pellets implanted at stage 3+ to 4; in situ hybridization
Description: FIG. 15. Overexpression of Wnt genes blocks cardiogenesis in precardiac mesoderm. (A) Whole-mount in situ hybridization for Nkx-2.5 in chick embryos in which pellets of chick embryo dermal fibroblasts infected with either RCAS-mWnt-3a or control RCAS-AP were implanted into the precardiac region of embryos in New culture at stage 3^+ to 4. […] (B) Red line in A indicates the level of this section. […] (C) Ectopic Wnt expression suppresses cardiogenesis in anterior lateral plate mesoderm explants. Stage 5 anterior lateral plate mesoderm from the precardiac region was infected with either control virus (RCAS-GFP, lane 1; RCAS-AP, lane 3), or RCAS-Wnt-3a (lane 2) or RCAS-Wnt-8c (lane 4). Cultures were carried out in the presence of 200 ng/mL BMP-4 overnight followed by 48 h in 20 ng/mL BMP-4. Transcript levels were evaluated by RT-PCR.
As inhibition of Wnt signaling can induce cardiogenesis in the PLP mesoderm, we hypothesized that expression of Wnt signals in the heart field would have the opposite effect. To address this issue, we examined whether ectopic expression of Wnt-3a in the presumptive heart field affects the expression of Nkx-2.5 in vivo. […] However, these in vivo experiments affected all three germ layers. […]

stage 7 chick embryos = assay: Cell pellet implantation into stage 7 chick embryos in New culture (heart looping, DiI tracing, in situ hybridization); type: in vivo; settings: fibroblasts expressing Wnt-1 implanted into one side of heart-forming region, stage 7
APMEE explants = assay: APMEE explant culture, cardiac gene expression by RT-PCR; type: cell-based, chick; settings: stage 9 APMEE explants; RCAS-Wnt-3a infection (n=24) or coculture with Rat-1/Wnt-1-HA cells (n=12)

Row | Molecule | Hoechst 33342 dye retention of SP cells (SP cells) | Nkx-2.5 expression in the presumptive heart field [1] | Nkx-2.5 expression in heart-forming region (stage 7 chick embryos) | APMEE explants in which cardiogenesis was blocked (APMEE explants)
1 | COc1ccc(CCN(C)CCCC(C#N)(c2ccc(OC)c(OC)c2)C(C)C)cc1OC (stereo not shown) [verapamil] | blocks the channel(s) responsible for low dye retention | – | – | –
2 | Wnt-1: delivered by Rat-1 cells stably overexpressing Wnt-1 (protein, UniProt P04426 28-370, looked up) Proto-oncogene Wnt-1: ANSSGRWWGIVNIASSTNLLTDSKSLQLVLEPSLQLLSRKQRRLIRQNPGILHSVSGGLQSAVRECKWQFRNRRWNCPTAPGPHLFGKIVNRGCRETAFIFAITSAGVTHSVARSCSEGSIESCTCDYRRRGPGGPDWHWGGCSDNIDFGRLFGREFVDSGEKGRDLRFLMNLHNNEAGRTTVFSEMRQECKCHGMSGSCTVRTCWMRLPTLRAVGDVLRDRFDGASRVLYGNRGSNRASRAELLRLEPEDPAHKPPSPHDLVYFEKSPNFCTYSGRLGTAGTAGRACNSSSPALDGCELLCCGRGHRTRTQRVTERCNCTFHWCCHVSCRNCTHTRVLHECL | – | similarly extinguished endogenous Nkx-2.5 expression | blocked subsequent expression of Nkx-2.5 | 50%

From US20040014209A1, “Compositions and methods for modulating cell differentiation” (priority 2002, published 2004)
